Data from patent US20240199755A1, “ANTAGONISTS AND AGONISTS OF THE TRANSFERRIN RECEPTOR-2 FOR USE IN THE TREATMENT OF DISEASES OF THE BONE” (Kymab Limited, priority 2018, published 2024).

Tests used:
BMPs-2, 4, 6 and 7 = assay: SPR binding of BMP ligands to Tfr2-ECD immobilized on the sensor chip
Experimental: For this purpose, Tfr2-ECD is immobilized on a Series S Sensor Chip C1 (GE Healthcare), by means of coupling the amino groups at 25° C. The carboxyl groups on the chip surface are activated for 7 minutes using a mixture of 196 mM 1-ethyl-3-(3-dimethylaminopropyl) carbodiimide-hydrochloride and 50 mM n-hydroxysuccinimide at a flow rate of 10 μl/min. Subsequently, 5 μg/ml Tfr2-ECD, diluted with sodium acetate buffer (pH 4.5), is injected at a flow rate of 5 μl/min up to a relative occupancy of 200 RU. Non-reacted groups are inactivated by injecting 1 M thanolamine-HCl (pH 8.5) for 7 minutes at a flow rate of 10 μl/min. In order to prepare a reference surface, the same procedure is carried out but without Tfr2-ECD being injected.
The binding assays are carried out at 37° C. at a flow rate of 30 μl/min. Each analyte is diluted by a running buffer (HBS-P, pH 7.4 together with 50 nM FeCl3). BMPs are used in a concentration of 50 nM and BMP receptors are used in a concentration of 200 nM. The binding assays are carried out by means of analyte injection for 300 s over the Tfr2-ECD surface, followed by dissociation for 1000 s. The values of the binding level are read out, relative to the baseline, 10 s before the end of the injection and are corrected with respect to the molar mass. Following the dissociation for 1000 s, the chip surface is regenerated for 60 s by means of HBS-P together with 5 M NaCl and 50 mM NaOH and is stabilized for 1000 s. The binding parameters are determined using the Biacore™ T100 evaluation software 2.03.
Tfr2-ECD, BMP-2 and BMP-4 were immobilized onto Series S Sensor Chips C1 (GE Healthcare) via its amine groups at 25° C. […]
For binding analysis, an injection of analyte for 240 s or 300 s over a Tfr2-ECD surface was followed by 1000 s dissociation. The values of the binding levels were recorded from referenced signals 10 s before the end of injection relative to baseline response. […]

BMP-2 = molecular target: T1, BMP-2 (Homo sapiens, UniProt P12643); assay: BMP-2 competitive ELISA; format: binding; conditions: 1.5 ng/ml BMP-2 with increasing concentrations of protein
T1 sequence (P12643 283-396): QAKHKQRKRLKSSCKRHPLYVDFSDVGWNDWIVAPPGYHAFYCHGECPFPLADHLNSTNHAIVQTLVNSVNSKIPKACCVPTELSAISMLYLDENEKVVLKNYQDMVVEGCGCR
Experimental: In order to carry out the BMP-2-competitive ELISA, the Duo Set BMP-2 ELISA kit by R&D Systems is used.
The Duo Set BMP-2 ELISA kit from R&D Systems was used. […] After 1 h incubation at RT and extensive washing, the detection antibody was added according to the manufacturer's protocol and the amount of BMP-2 was quantified. This experiment was performed at least three independent times.

Binding of BMPs-2, 4 and 6 to Tfr2-ECD at high salt concentrations (BMPs-2, 4, 6 and 7; 500 mM NaCl in running buffer): at a lower level
Binding of BMPs to immobilized Tfr2-ECD compared with holo-transferrin (BMPs-2, 4, 6 and 7; BMP ligands 50 nM, 1 mg/ml holo-Tf): more avidly than holotransferrin
Binding of BMP-2 to Tfr2 relative to that of holo-Tf (BMPs-2, 4, 6 and 7; BMP-2 vs holo-Tf): more than 10 fold
BMP-2 binding: signal of the BMP-2 detection antibody (BMP-2): verified
B1: Tfr2-ECD: Recombinant full-length extracellular domain (aa 103-798) of murine Tfr2, His-tagged, expressed in Sf9 insect cells (protein, listed as Mus musculus)
chain: RGSCQACGDSVLVVDEDVNPEDSGRTTLYWSDLQAMFLRFLGEGRMEDTIRLTSLRERVAGSARMATLVQDILDKLSRQKLDHVWTDTHYVGLQFPDPAHANTLHWVDADGSVQEQLPLEDPEVYCPYSATGNATGKLVYAHYGRSEDLQDLKAKGVELAGSLLLVRVGITSFAQKVAVAQDFGAQGVLIYPDPSDFSQDPHKPGLSSHQAVYGHVHLGTGDPYTPGFPSFNQTQFPPVESSGLPSIPAQPISADIADQLLRKLTGPVAPQEWKGHLSGSPYRLGPGPDLRLVVNNHRVSTPISNIFACIEGFAEPDHYVVIGAQRDAWGPGAAKSAVGTAILLELVRTFSSMVSNGFRPRRSLLFISWDGGDFGSVGATEWLEGYLSVLHLKAVVYVSLDNSVLGDGKFHAKTSPLLVSLIENILKQVDSPNHSGQTLYEQVALTHPSWDAEVIQPLPMDSSAYSFTAFAGVPAVEFSFMEDDRVYPFLHTKEDTYENLHKMLRGRLPAVVQAVAQLAGQLLIRLSHDHLLPLDFGRYGDVVLRHIGNLNEFSGDLKERGLTLQWVYSARGDYIRAAEKLRKEIYSSERNDERLMRMYNVRIMRVEFYFLSQYVSPADSPFRHIFLGQGDHTLGALVDHLRMLRADGSGAASSRLTAGLGFQESRFRRQLALLTWTLQGAANALSGDVWNIDNNF
modifications: His tag
notes: Recombinant full-length extracellular domain (aa 103-798) of murine Tfr2, His-tagged, expressed in Sf9 insect cells
BMP-2 binding: signal of the BMP-2 detection antibody (BMP-2; listed as protein according to the invention): signal of the BMP-2 detection antibody reduced
